This note sets out measurements from publication PMC9427763, “Structure and dynamics of Toll immunoreceptor activation in the mosquito Aedes aegypti” (Nature Communications, 2022).

Several values for one entry are separate records, joined by “and”; a condition that tells them apart may be missing. Identical values can stand only once.

In assay [1] the target is Aedes aegypti Spaetzle1C cystine-knot domain (residues 219-320), disulphide-linked dimer (Aedes aegypti). The assay can be described thus: mass photometry; 25 nM Toll5A with 25 nM Spz1C; PBS pH 7.4; Refeyn OneMP.
For assay [2] the target is unchanged. Nature of the assay: SEC-MALS; 50 μM Toll5A alone or saturated with Spz1C loaded on Superose 6; 50 mM Tris-HCl pH 7.5, 50 mM NaCl. On the technique in general: Size exclusion chromatography separates by hydrodynamic size, large species first.
Assay [3] has as its target Aedes aegypti Toll5A ectodomain (residues 1-789) (Aedes aegypti). The assay is described as above.
Assay [4] concerns the target Aedes aegypti Spaetzle1C cystine-knot domain (residues 219-320), disulphide-linked dimer (Aedes aegypti). Nature of the assay: SPR; Biacore T200, CM5 chip; Spz1A, Spz1C and DmSpz proproteins and cys-knot ligands immobilised by amine coupling at pH 4.5; Toll ectodomains injected at 0.1-7.5 μM; 100 mM NaCl, 20 mM HEPES pH 7; 30 μl/min; two-state reaction model. (In SPR one partner is held on a chip, and binding of the other changes the refractive index at the surface.)

Assay [5] addresses T1, Aedes aegypti Spaetzle1C cystine-knot domain (residues 219-320), disulphide-linked dimer (Aedes aegypti, intermolecular disulphide bonds between Cys-94 and between Cys-59 of the two chains).
T1 chain: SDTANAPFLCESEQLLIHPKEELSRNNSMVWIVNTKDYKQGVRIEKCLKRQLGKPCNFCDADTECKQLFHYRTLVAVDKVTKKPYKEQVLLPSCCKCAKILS
The assay can be described thus: SPR; heterogeneous ligand fit, second site.

Assay [6] concerns the target Aedes aegypti Toll5A ectodomain (residues 1-789) (Aedes aegypti). The assay can be described thus: AUC; sedimentation velocity, Toll5A ectodomain alone at ≥ 30 μM; 50,000 rpm, 20 °C; dimer to monomers.
Assay [7] has as its target T1, Aedes aegypti Spaetzle1C cystine-knot …. Nature of the assay: SPR; heterogeneous ligand fit, site 1.
Assay [8] has as its target Aedes aegypti Spaetzle1C cystine-knot domain (residues 219-320), disulphide-linked dimer (Aedes aegypti). The assay can be described thus: AUC; sedimentation velocity, Toll5A with Spz1C at equimolar concentration or in excess; 50,000 rpm, 20 °C.
Assay [9] has the same target. Nature of the assay: mass photometry; 50 nM Toll5A with 50 nM Spz1C; PBS pH 7.4; Refeyn OneMP.
Assay [10] concerns the target T2, Drosophila melanogaster Toll (Toll1) ectodomain (Drosophila melanogaster, UniProt P08953 28-807).
T2 construct: Toll receptor 1, Drosophila melanogaster, purified ectodomain; also called DmToll1; DmToll
T2 sequence (looked up): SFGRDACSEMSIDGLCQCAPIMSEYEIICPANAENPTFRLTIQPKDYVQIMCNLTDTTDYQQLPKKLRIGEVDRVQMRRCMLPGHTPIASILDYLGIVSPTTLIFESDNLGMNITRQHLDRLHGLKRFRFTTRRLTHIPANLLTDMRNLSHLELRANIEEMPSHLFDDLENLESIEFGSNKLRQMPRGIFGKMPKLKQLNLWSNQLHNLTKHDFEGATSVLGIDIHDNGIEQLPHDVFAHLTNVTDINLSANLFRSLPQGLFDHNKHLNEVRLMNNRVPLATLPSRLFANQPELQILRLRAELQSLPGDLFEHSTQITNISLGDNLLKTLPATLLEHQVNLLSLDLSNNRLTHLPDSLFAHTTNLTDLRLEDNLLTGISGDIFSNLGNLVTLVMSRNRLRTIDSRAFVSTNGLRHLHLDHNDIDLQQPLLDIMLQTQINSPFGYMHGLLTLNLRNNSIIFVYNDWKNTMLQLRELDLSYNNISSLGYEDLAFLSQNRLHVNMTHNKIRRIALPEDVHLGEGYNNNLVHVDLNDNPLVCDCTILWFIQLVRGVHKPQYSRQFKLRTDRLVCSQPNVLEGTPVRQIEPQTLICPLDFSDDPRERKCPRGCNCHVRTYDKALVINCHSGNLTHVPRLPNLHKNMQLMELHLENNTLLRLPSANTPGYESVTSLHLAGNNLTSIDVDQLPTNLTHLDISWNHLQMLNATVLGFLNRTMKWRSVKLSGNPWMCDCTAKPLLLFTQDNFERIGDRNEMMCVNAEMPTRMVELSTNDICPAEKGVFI
Nature of the assay: SPR; Biacore T200, CM5 chip; Spz1A, Spz1C and DmSpz proproteins and cys-knot ligands immobilised by amine coupling at pH 4.5; Toll ectodomains injected at 0.1-7.5 μM; 100 mM NaCl, 20 mM HEPES pH 7; 30 μl/min; two-state reaction model. Conditions: both partners purified.

B1: Aedes aegypti Toll5A ectodomain (residues 1-789) (receptor)
chain: TSTKRFTCPEESEASNCSCEEFPSKTHFYCPDFNPTLYVDVEDRMRVDFKCYDEPHDFKSLPNLAIGSVKLLTVVDCVLDDDRPILESFKFLEVADVRSFVYNNHENGIRYNAKYFEGMEQLENLTLARGVVSIDRDTFSGFLNLKRLTIEHNKLNLQPGTFEALSNLTYLGLVYNGLNEIQPGLFDGLESLEALSLSYNDIKSLSAGSFNGLSSLRMLNLRVNKIESFDANTFASLKELSRLEITLNPFVSLPRGLFSENKKLKTLILTNNRKLVTLPEELLANLKELTVVNLSHNGVGNLPESLLSGSSGIIELNLGYNRLNSLPEELLSDQPQLQVLNLDHNQLESIPDYFLERNVELQTLYLSHNRLRSLSEKAFTKLKNLKELHLENNQLQTIPQFLFSGTPKLEEIYMQNNQLALHANSFINEELSIADNDNTPFQVLQKLRILHLRNNSISTIFQDWYINNLEMQSLDLSFNKLPGLSYTQLQFQSNITLNLSNNEISQVLLIDDLDLQPYQRINVDLNHNPLNCNCNALKFIQLIQSKAEHGLQFNVDQLRCSEPPNLLDATMDQLQTKDLLCDFESADDCPKDCQCAMRLLDHTVIVNCSGRGLTEFPDLPIPSQLHEDFNALEVHVENNRLTKLPNLTKHNEITQLYARNNSIQNLLPHNIPSKLRIIDLSQNLLKMIDDSTLAQINRSSHLETIRLSQNQWLCDCPASSFLIFVQQNSRLISDMSAIRCHPSGKSLDSITVNELCFEDYTTENLYFQ
modifications: Asn-linked glycans visible at positions 151, 194, 481, 521, 634 and 687
The stoichiometry N is the number of molecules, sites or subunits per partner or assembly. A word on the Kd: it is the concentration at which binding is half-saturated. Higher therefore signals a looser complex. The koff is a measure of how fast the partners let go of each other. Lower therefore signals slow dissociation. Consider B1, for which the stoichiometry N (Toll5A per Spz1C dimer) in assay [1] is 2; in assay [2], 2; in assay [8], 1 and 2. Also, the stoichiometry N in [3] and in assay [6] was 2 in each case. In assay [4], this molecule yielded a Kd of 2 µM. Further, the koff in [5] is 0.00532 s⁻¹; in assay [7] it was 0.0324 s⁻¹. In assay [9], this molecule had a stoichiometry N (Toll5A per Spz1C dimer (1:1 complex)) of 1. In assay [9], this molecule yielded a stoichiometry N (Toll5A per Spz1C dimer (2:1 complex)) of 2. The same molecule displayed a stoichiometry N (Toll5A per Spz1C dimer (2:2 complex)) in [9] of 1.

B2: Drosophila melanogaster Spaetzle (Spz1) (ligand)
chain: VGGSDERFLCRSIRKLVYPKKGLRADDTWQLIVNNDEYKQAIQIEECEGADQPCDFAANFPQSYNPICKQHYTQQTLASIKSDGELDVVQNSFKIPSCCKCALKTG
modifications: disulfide-linked dimer of the processed cys-knot form (C-106; limits from the UniProt chain feature, not given); the proprotein (26-326) was also immobilised
B2 showed a Kd in assay [10] of 0.03 to 0.08 µM.
